Reference: paper PMC6815954, “Rational design of caspase-responsive smart molecular probe for positron emission tomography imaging of drug-induced apoptosis” (Theranostics, 2019)

Substrate: CC(=O)N[C@@H](CC(=O)O)C(=O)N[C@@H](CCC(=O)O)C(=O)N[C@H](C(=O)N[C@@H](CC(=O)O)C(=O)N[C@@H](CSSC(C)(C)C)C(=O)N[C@@H](Cc1cn(CC[N+](C)(C)C[B-](F)(F)F)nn1)C(=O)Nc1ccc2nc(C#N)sc2c1)C(C)C
Experiment: Enzyme kinetics study of cleavage of 1
Type: biochemical, human
Settings: other: 1 at 0.1-2 mM, caspase-3 0.4 μg/1 mL, assay buffer pH 7.4, 37 °C, 1 h, HPLC
Procedure: Figure S17. (A) HPLC traces of probe 1 incubated with the cell lysates of apoptotic HeLa cells for 8 h.
Bottom: probe 1 alone; Top: reduced product (*) and cyclized product (#). (B) The content of 1-dimer after incubation with the cell lysates of apoptotic HeLa cells at different time.
For the enzyme-controlled cleavage kinetics studies, the probe 1 at different concentrations (0.1, 0.25, 0.5, 1, and 2 mM) was incubated with the caspase-3 (0.4 μg/1 mL) assay buffer (pH = 7.4) containing 50 mM HEPES, 100 mM NaCl, 1 mM EDTA, 1 mM DTT, 10% glycerol, and 0.1% CHAPS at 37 °C for 1 h, respectively. Then the caspase-3-cleaved intermediates were characterized by HPLC, and the kinetic parameters were determined according to the method reported previously. 4,5
Figure S18. Kinetic studies for the cleavage of probe 1 towards caspase-3.
Biocompatibility of 1 and 1-NPs
One cancer cell line (HeLa) and three normal cell lines (GES-1, LO2 and HEK293) were cultured in DMEM supplemented with 10% fetal bovine serum (FBS, Gibco). The cells were grown in tissue culture dishes and kept in a humidified atmosphere of 5% CO 2 at 37 °C. The […]
(1 picture or pasted object on this page, not shown here)

B1: caspase-3 (Homo sapiens) (protein)
chain 1: SGISLDNSYKMDYPEMGLCIIINNKNFHKSTGMTSRSGTDVDAANLRETFRNLKYEVRNKNDLTREEIVELMRDVSKEDHSKRSSFVCVLLSHGEEGIIFGTNGPVDLKKITNFFRGDRCRSLTGKPKLFIIQACRGTELDCGIETD
chain 2: SGVDDDMACHKIPVEADFLYAYSTAPGYYSWRNSKDGSWFIQSLCAMLKQYADKLEFMHILTRVNRKVATEFESFSFDATFHAKKQIPCIVSMLTKELYFYH
For B1, the Km was 330.43 µM, the kcat was 6.22 s⁻¹ and the kcat/Km was 17617.56 M⁻¹ s⁻¹.
